Results from patent US20120148575A1.

Legend:
Test in all cases: SPR
[1] = target: muFcgRIII
[2] = target: muFcgRIIb
[3] = target: muFcgRIV
[4] = target: muFcgRI
[5] = target: huFcRI
[6] = target: huFcgRIIIA - 158V
[7] = target: huFcgRIIb

Chain of muFcgRIV (A0A0B4J1G0 21-203): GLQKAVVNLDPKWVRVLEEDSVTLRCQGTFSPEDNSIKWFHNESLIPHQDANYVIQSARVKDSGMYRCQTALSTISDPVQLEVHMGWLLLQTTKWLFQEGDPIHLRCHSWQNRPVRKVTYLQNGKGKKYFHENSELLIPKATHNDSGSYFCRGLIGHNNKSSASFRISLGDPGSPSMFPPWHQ

Kd [1] [µM]	Kd [2] [nM]	Kd [3] [nM]	Kd [4] [nM]	Kd [5] [nM]	Kd [6] [nM]	Kd [7] [µM]	Substance
3.66	1240	253					Hu IgG1
3.96	1260	43	397				Hu IgG1 afuc
6.36	1470			19	574	14.5	Control
